Results as given in patent US20160272683A1 (Novo Nordisk, published 2016).
Numbered stars: 1 amine (or outer) side, 2 acyl side, 3 side chain; on linkers, the order of the positions; unused ones are H or OH. * marks the point of attachment. C20 diacid = O=C(O)CCCCCCCCCCCCCCCCCCC(=O)*; C18 diacid = O=C(O)CCCCCCCCCCCCCCCCC(=O)*; γGlu = O=C(O)[C@H](CCC(=O)[*:2])N[*:1]

T1: human calcitonin receptor on BHK570/CRE-luc cells (human, UniProt P30988 25-474)
T1 sequence (looked up): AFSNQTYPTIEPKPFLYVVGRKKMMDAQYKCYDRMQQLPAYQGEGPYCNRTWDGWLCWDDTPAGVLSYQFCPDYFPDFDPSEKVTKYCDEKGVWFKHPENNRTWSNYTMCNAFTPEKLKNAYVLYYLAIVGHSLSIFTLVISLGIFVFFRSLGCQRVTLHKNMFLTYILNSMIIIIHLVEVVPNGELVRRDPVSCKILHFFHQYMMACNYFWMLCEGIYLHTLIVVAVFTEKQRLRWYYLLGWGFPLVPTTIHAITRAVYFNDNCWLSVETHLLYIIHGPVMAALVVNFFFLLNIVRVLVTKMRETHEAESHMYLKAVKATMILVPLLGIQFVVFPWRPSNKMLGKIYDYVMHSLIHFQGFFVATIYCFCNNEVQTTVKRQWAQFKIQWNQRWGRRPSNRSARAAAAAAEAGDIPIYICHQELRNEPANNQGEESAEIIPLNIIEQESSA

T2: human amylin 3(a) receptor (human calcitonin receptor co-expressed with RAMP-3) on BHK570/CRE-luc cells (human, UniProt P30988 25-474; O60896 24-148)
T2 sequence (looked up) 1: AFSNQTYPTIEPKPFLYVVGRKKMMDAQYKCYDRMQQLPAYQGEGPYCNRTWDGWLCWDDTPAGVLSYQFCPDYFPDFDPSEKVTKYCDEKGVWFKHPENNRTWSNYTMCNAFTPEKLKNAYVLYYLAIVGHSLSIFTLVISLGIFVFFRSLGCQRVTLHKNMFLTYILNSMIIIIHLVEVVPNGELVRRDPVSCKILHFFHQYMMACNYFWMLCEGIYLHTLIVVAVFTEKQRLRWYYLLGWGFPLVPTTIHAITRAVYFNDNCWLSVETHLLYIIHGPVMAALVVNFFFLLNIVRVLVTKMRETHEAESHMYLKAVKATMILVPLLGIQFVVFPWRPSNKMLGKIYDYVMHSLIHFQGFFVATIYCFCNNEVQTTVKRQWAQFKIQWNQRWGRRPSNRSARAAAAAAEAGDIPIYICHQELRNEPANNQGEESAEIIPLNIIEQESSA
T2 sequence (looked up) 2: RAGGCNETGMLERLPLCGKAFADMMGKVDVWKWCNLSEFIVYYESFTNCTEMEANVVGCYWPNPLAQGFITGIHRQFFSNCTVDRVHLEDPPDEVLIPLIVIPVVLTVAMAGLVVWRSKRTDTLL

B1: [N-terminal(C20 diacid-gGlu), des1, 4G, 9V, 23Y, 30S, 31G, 32T, 33Y]mimylin (peptide)
peptide: {C20 diacid-γGlu}-ASGLSTAVLGRLSAELHELATYPRTETGSGTY-NH2
SMILES: CC(C)C[C@H](NC(=O)CNC(=O)[C@H](CO)NC(=O)[C@H](C)NC(=O)CC[C@H](NC(=O)CCCCCCCCCCCCCCCCCCC(=O)O)C(=O)O)C(=O)N[C@@H](CO)C(=O)N[C@H](C(=O)N[C@@H](C)C(=O)N[C@H](C(=O)N[C@@H](CC(C)C)C(=O)NCC(=O)N[C@@H](CCCNC(=N)N)C(=O)N[C@@H](CC(C)C)C(=O)N[C@@H](CO)C(=O)N[C@@H](C)C(=O)N[C@@H](CCC(=O)O)C(=O)N[C@@H](CC(C)C)C(=O)N[C@@H](Cc1c[nH]cn1)C(=O)N[C@@H](CCC(=O)O)C(=O)N[C@@H](CC(C)C)C(=O)N[C@@H](C)C(=O)N[C@H](C(=O)N[C@@H](Cc1ccc(O)cc1)C(=O)N1CCC[C@H]1C(=O)N[C@@H](CCCNC(=N)N)C(=O)N[C@H](C(=O)N[C@@H](CCC(=O)O)C(=O)N[C@H](C(=O)NCC(=O)N[C@@H](CO)C(=O)NCC(=O)N[C@H](C(=O)N[C@@H](Cc1ccc(O)cc1)C(N)=O)[C@@H](C)O)[C@@H](C)O)[C@@H](C)O)[C@@H](C)O)C(C)C)[C@@H](C)O
B2: [N-terminal(C18 diacid-gGlu), des1, 5V, 9V, 10V, 20V, 30S, 31G]mimylin (peptide)
peptide: {C18 diacid-γGlu}-ASEVSTAVVGRLSAELHEVATLPRTETGSGSP-NH2
SMILES: CC(C)C[C@H](NC(=O)[C@H](CCCNC(=N)N)NC(=O)CNC(=O)[C@@H](NC(=O)[C@@H](NC(=O)[C@H](C)NC(=O)[C@@H](NC(=O)[C@H](CO)NC(=O)[C@@H](NC(=O)[C@H](CCC(=O)O)NC(=O)[C@H](CO)NC(=O)[C@H](C)NC(=O)CC[C@H](NC(=O)CCCCCCCCCCCCCCCCC(=O)O)C(=O)O)C(C)C)[C@@H](C)O)C(C)C)C(C)C)C(=O)N[C@@H](CO)C(=O)N[C@@H](C)C(=O)N[C@@H](CCC(=O)O)C(=O)N[C@@H](CC(C)C)C(=O)N[C@@H](Cc1c[nH]cn1)C(=O)N[C@@H](CCC(=O)O)C(=O)N[C@H](C(=O)N[C@@H](C)C(=O)N[C@H](C(=O)N[C@@H](CC(C)C)C(=O)N1CCC[C@H]1C(=O)N[C@@H](CCCNC(=N)N)C(=O)N[C@H](C(=O)N[C@@H](CCC(=O)O)C(=O)N[C@H](C(=O)NCC(=O)N[C@@H](CO)C(=O)NCC(=O)N[C@@H](CO)C(=O)N1CCC[C@H]1C(N)=O)[C@@H](C)O)[C@@H](C)O)[C@@H](C)O)C(C)C
B3: [N-terminal(C20 diacid-gGlu), des1, 12K, 23Y, 25K, 30S, 31G, 33Y]mimylin (peptide)
peptide: {C20 diacid-γGlu}-ASELSTAALGKLSAELHELATYPKTETGSGSY-NH2
SMILES: CC(C)C[C@H](NC(=O)[C@H](C)NC(=O)[C@H](C)NC(=O)[C@@H](NC(=O)[C@H](CO)NC(=O)[C@H](CC(C)C)NC(=O)[C@H](CCC(=O)O)NC(=O)[C@H](CO)NC(=O)[C@H](C)NC(=O)CC[C@H](NC(=O)CCCCCCCCCCCCCCCCCCC(=O)O)C(=O)O)[C@@H](C)O)C(=O)NCC(=O)N[C@@H](CCCCN)C(=O)N[C@@H](CC(C)C)C(=O)N[C@@H](CO)C(=O)N[C@@H](C)C(=O)N[C@@H](CCC(=O)O)C(=O)N[C@@H](CC(C)C)C(=O)N[C@@H](Cc1c[nH]cn1)C(=O)N[C@@H](CCC(=O)O)C(=O)N[C@@H](CC(C)C)C(=O)N[C@@H](C)C(=O)N[C@H](C(=O)N[C@@H](Cc1ccc(O)cc1)C(=O)N1CCC[C@H]1C(=O)N[C@@H](CCCCN)C(=O)N[C@H](C(=O)N[C@@H](CCC(=O)O)C(=O)N[C@H](C(=O)NCC(=O)N[C@@H](CO)C(=O)NCC(=O)N[C@@H](CO)C(=O)N[C@@H](Cc1ccc(O)cc1)C(N)=O)[C@@H](C)O)[C@@H](C)O)[C@@H](C)O
B4: [N-terminal(C20 diacid-gGlu), 4G, 15Q, 21Q, 23Y, 30S, 31G, 32T, 33Y]mimylin (peptide)
peptide: {C20 diacid-γGlu}-EASGLSTAALGRLSQELHELQTYPRTETGSGTY-NH2
SMILES: CC(C)C[C@H](NC(=O)CNC(=O)[C@H](CO)NC(=O)[C@H](C)NC(=O)[C@H](CCC(=O)O)NC(=O)CC[C@H](NC(=O)CCCCCCCCCCCCCCCCCCC(=O)O)C(=O)O)C(=O)N[C@@H](CO)C(=O)N[C@H](C(=O)N[C@@H](C)C(=O)N[C@@H](C)C(=O)N[C@@H](CC(C)C)C(=O)NCC(=O)N[C@@H](CCCNC(=N)N)C(=O)N[C@@H](CC(C)C)C(=O)N[C@@H](CO)C(=O)N[C@@H](CCC(N)=O)C(=O)N[C@@H](CCC(=O)O)C(=O)N[C@@H](CC(C)C)C(=O)N[C@@H](Cc1c[nH]cn1)C(=O)N[C@@H](CCC(=O)O)C(=O)N[C@@H](CC(C)C)C(=O)N[C@@H](CCC(N)=O)C(=O)N[C@H](C(=O)N[C@@H](Cc1ccc(O)cc1)C(=O)N1CCC[C@H]1C(=O)N[C@@H](CCCNC(=N)N)C(=O)N[C@H](C(=O)N[C@@H](CCC(=O)O)C(=O)N[C@H](C(=O)NCC(=O)N[C@@H](CO)C(=O)NCC(=O)N[C@H](C(=O)N[C@@H](Cc1ccc(O)cc1)C(N)=O)[C@@H](C)O)[C@@H](C)O)[C@@H](C)O)[C@@H](C)O)[C@@H](C)O
B5: [N-terminal(C20 diacid-gGlu), des1, 9S, 21S, 23Y, 30S, 31G, 33Y]mimylin (peptide)
peptide: {C20 diacid-γGlu}-ASELSTASLGRLSAELHELSTYPRTETGSGSY-NH2
SMILES: CC(C)C[C@H](NC(=O)[C@H](CO)NC(=O)[C@H](C)NC(=O)[C@@H](NC(=O)[C@H](CO)NC(=O)[C@H](CC(C)C)NC(=O)[C@H](CCC(=O)O)NC(=O)[C@H](CO)NC(=O)[C@H](C)NC(=O)CC[C@H](NC(=O)CCCCCCCCCCCCCCCCCCC(=O)O)C(=O)O)[C@@H](C)O)C(=O)NCC(=O)N[C@@H](CCCNC(=N)N)C(=O)N[C@@H](CC(C)C)C(=O)N[C@@H](CO)C(=O)N[C@@H](C)C(=O)N[C@@H](CCC(=O)O)C(=O)N[C@@H](CC(C)C)C(=O)N[C@@H](Cc1c[nH]cn1)C(=O)N[C@@H](CCC(=O)O)C(=O)N[C@@H](CC(C)C)C(=O)N[C@@H](CO)C(=O)N[C@H](C(=O)N[C@@H](Cc1ccc(O)cc1)C(=O)N1CCC[C@H]1C(=O)N[C@@H](CCCNC(=N)N)C(=O)N[C@H](C(=O)N[C@@H](CCC(=O)O)C(=O)N[C@H](C(=O)NCC(=O)N[C@@H](CO)C(=O)NCC(=O)N[C@@H](CO)C(=O)N[C@@H](Cc1ccc(O)cc1)C(N)=O)[C@@H](C)O)[C@@H](C)O)[C@@H](C)O
B6: [N-terminal(C20 diacid-gGlu), des1, 4G, 9V, 23Y, 30S, 31G, 32T]mimylin (peptide)
peptide: {C20 diacid-γGlu}-ASGLSTAVLGRLSAELHELATYPRTETGSGTP-NH2
SMILES: CC(C)C[C@H](NC(=O)CNC(=O)[C@H](CO)NC(=O)[C@H](C)NC(=O)CC[C@H](NC(=O)CCCCCCCCCCCCCCCCCCC(=O)O)C(=O)O)C(=O)N[C@@H](CO)C(=O)N[C@H](C(=O)N[C@@H](C)C(=O)N[C@H](C(=O)N[C@@H](CC(C)C)C(=O)NCC(=O)N[C@@H](CCCNC(=N)N)C(=O)N[C@@H](CC(C)C)C(=O)N[C@@H](CO)C(=O)N[C@@H](C)C(=O)N[C@@H](CCC(=O)O)C(=O)N[C@@H](CC(C)C)C(=O)N[C@@H](Cc1c[nH]cn1)C(=O)N[C@@H](CCC(=O)O)C(=O)N[C@@H](CC(C)C)C(=O)N[C@@H](C)C(=O)N[C@H](C(=O)N[C@@H](Cc1ccc(O)cc1)C(=O)N1CCC[C@H]1C(=O)N[C@@H](CCCNC(=N)N)C(=O)N[C@H](C(=O)N[C@@H](CCC(=O)O)C(=O)N[C@H](C(=O)NCC(=O)N[C@@H](CO)C(=O)NCC(=O)N[C@H](C(=O)N1CCC[C@H]1C(N)=O)[C@@H](C)O)[C@@H](C)O)[C@@H](C)O)[C@@H](C)O)C(C)C)[C@@H](C)O
B7: [N-terminal(C20 diacid-gGlu), des1, 9T, 21S, 23Y, 30S, 31G, 33Y]mimylin (peptide)
peptide: {C20 diacid-γGlu}-ASELSTATLGRLSAELHELSTYPRTETGSGSY-NH2
SMILES: CC(C)C[C@H](NC(=O)[C@H](CCCNC(=N)N)NC(=O)CNC(=O)[C@H](CC(C)C)NC(=O)[C@@H](NC(=O)[C@H](C)NC(=O)[C@@H](NC(=O)[C@H](CO)NC(=O)[C@H](CC(C)C)NC(=O)[C@H](CCC(=O)O)NC(=O)[C@H](CO)NC(=O)[C@H](C)NC(=O)CC[C@H](NC(=O)CCCCCCCCCCCCCCCCCCC(=O)O)C(=O)O)[C@@H](C)O)[C@@H](C)O)C(=O)N[C@@H](CO)C(=O)N[C@@H](C)C(=O)N[C@@H](CCC(=O)O)C(=O)N[C@@H](CC(C)C)C(=O)N[C@@H](Cc1c[nH]cn1)C(=O)N[C@@H](CCC(=O)O)C(=O)N[C@@H](CC(C)C)C(=O)N[C@@H](CO)C(=O)N[C@H](C(=O)N[C@@H](Cc1ccc(O)cc1)C(=O)N1CCC[C@H]1C(=O)N[C@@H](CCCNC(=N)N)C(=O)N[C@H](C(=O)N[C@@H](CCC(=O)O)C(=O)N[C@H](C(=O)NCC(=O)N[C@@H](CO)C(=O)NCC(=O)N[C@@H](CO)C(=O)N[C@@H](Cc1ccc(O)cc1)C(N)=O)[C@@H](C)O)[C@@H](C)O)[C@@H](C)O

How the values were obtained:
[1] = biological target: T1, human calcitonin receptor on …; assay: cell-based or functional assay
[2] = biological target: T2, human amylin 3(a) receptor (human …); assay: cell-based or functional assay

Row | Binder | hCTR funct. EC50 (pM), tested with HSA [1] [pM] | hAmylin-R funct. EC50 (pM), tested with HSA [2] [pM]
1 | B1 | 53 | 122
2 | B2 | 28 | 106
3 | B3 | 73 | 93
4 | B4 | 92 | 128
5 | B5 | 108 | 143
6 | B6 | 35 | 66
7 | B7 | 40 | 92
